The assay concerns the target DLL3 (target in the Fab-Zap internalization assay) (UniProt Q9NYJ7). Kind of assay: cell-based or functional assay.

Chain of DLL3 (target in the Fab-Zap internalization assay) (Q9NYJ7 27-618 limits assumed): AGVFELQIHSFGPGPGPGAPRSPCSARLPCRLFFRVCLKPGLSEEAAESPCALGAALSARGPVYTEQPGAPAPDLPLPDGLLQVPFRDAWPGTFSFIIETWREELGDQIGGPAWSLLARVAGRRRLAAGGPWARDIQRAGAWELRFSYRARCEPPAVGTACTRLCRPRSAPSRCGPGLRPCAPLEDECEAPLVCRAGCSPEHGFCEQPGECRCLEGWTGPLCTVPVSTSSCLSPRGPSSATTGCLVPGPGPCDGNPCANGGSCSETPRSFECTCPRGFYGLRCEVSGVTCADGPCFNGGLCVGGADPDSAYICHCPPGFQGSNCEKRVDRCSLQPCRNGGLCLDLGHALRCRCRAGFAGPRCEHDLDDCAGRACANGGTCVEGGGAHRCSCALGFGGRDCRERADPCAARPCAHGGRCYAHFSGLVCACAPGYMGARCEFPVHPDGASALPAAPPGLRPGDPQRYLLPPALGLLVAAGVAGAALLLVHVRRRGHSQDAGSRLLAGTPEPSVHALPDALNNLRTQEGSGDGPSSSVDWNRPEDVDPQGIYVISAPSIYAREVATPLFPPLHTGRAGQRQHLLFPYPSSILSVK

For the substance “Rovalpituzumab Tesirine (SC16LD6.5) (antibody)”, the Percent Max Killing (Fab-Zap internalization assay, 10 ug/ml) worked out at 96%.
